Target: the molecule itself
Experiment: detergent-resistant band of doubled size on SDS-PAGE and western blot

B1: TMEM70-FLAG (natural protein, human, UniProt Q9BUB7 82-260, looked up)
chain: LNTPSDKSEDGRLIYTGNMARAVFGVKCFSYSTSLIGLTFLPYIFTQNNAISESVPLPIQIIFYGIMGSFTVITPVLLHFITKGYVIRLYHEATTDTYKAITYNAMLAETSTVFHQNDVKIPDAKHVFTTFYAKTKSLLVNPVLFPNREDYIHLMGYDKEEFILYMEETSEEKRHKDDK
  stoichiometry N: 2

Reference: article doi:10.1101/2020.04.03.023861 (bioRxiv, 2020)
